Data reported in publication PMC8521305.

Biological target: glycophorin A (GlyA) TMH
Test: SEC

“glycophorin A (GlyA) TMH (domain or fragment)” gave a stoichiometry N (helices per nanodisc) of 2.
